One may read the IC50 as the point on the concentration scale where inhibition reaches its midpoint. A low value points to greater potency.

The text below walks through data of US20030103975A1.

The target in assay [1] is soluble αvβ3 integrin heterodimer (Chemicon International) (UniProt P06756). Briefly: competition ELISA: soluble αvβ3 (5 ng/µl) on wells coated with G^919-1207 (the competitor), with increasing fibronectin. A general note: In an ELISA, binding on a coated surface is turned into a signal by an enzyme label.
The target in assay [2] is α3β1 integrin on human endothelial cells (TrHBMEC) (human) (UniProt P26006). The experiment in a line: cell-based or functional assay.
Sequence of α3β1 integrin on human endothelial cells (TrHBMEC) (human) (P26006 33-1051, chain 1 of 2): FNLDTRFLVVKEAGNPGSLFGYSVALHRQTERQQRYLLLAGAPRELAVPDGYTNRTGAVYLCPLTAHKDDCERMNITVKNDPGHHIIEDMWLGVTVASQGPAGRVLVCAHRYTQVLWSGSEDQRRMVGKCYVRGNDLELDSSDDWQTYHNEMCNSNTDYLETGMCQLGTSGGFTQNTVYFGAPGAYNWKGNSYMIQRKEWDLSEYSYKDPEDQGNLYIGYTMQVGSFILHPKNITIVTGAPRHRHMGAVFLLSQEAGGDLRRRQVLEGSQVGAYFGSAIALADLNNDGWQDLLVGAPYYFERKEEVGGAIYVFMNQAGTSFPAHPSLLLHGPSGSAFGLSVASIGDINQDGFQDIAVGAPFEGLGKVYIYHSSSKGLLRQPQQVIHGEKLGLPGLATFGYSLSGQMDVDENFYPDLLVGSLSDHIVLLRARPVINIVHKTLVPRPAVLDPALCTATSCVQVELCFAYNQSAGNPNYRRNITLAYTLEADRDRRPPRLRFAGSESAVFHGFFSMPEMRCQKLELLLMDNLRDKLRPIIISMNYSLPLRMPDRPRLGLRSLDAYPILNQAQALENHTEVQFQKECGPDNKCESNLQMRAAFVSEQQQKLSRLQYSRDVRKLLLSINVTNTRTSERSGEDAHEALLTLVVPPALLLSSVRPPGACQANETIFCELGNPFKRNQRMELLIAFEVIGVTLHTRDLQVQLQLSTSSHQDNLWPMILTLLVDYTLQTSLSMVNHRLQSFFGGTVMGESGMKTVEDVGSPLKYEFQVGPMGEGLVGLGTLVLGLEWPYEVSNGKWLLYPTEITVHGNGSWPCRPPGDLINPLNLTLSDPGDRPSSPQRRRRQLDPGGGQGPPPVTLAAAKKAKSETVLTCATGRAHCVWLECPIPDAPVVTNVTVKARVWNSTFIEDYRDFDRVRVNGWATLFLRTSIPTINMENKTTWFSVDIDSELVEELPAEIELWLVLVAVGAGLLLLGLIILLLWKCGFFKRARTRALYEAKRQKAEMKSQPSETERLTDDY
Sequence of α3β1 integrin on human endothelial cells (TrHBMEC) (human) (P05556 21-798, chain 2 of 2, further chain): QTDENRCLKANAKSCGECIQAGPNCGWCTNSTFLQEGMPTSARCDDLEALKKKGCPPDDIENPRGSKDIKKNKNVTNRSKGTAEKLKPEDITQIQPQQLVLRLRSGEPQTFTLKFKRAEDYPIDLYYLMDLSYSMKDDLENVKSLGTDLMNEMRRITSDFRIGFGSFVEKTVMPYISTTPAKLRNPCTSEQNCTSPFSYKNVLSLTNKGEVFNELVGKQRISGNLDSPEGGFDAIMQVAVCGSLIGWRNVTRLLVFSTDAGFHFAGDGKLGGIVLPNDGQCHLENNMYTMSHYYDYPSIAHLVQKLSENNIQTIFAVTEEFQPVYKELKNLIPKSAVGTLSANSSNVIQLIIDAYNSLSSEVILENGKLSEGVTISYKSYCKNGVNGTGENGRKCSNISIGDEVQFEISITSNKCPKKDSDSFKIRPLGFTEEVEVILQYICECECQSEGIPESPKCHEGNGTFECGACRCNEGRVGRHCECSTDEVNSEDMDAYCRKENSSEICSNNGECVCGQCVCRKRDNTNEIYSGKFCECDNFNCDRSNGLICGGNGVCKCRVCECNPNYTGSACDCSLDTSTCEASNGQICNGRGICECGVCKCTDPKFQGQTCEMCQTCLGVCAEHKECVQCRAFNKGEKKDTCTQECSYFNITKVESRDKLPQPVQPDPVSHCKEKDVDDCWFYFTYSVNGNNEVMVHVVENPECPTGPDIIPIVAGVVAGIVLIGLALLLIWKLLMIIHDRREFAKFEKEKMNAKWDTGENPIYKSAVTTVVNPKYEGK

Sequence of soluble αvβ3 integrin heterodimer (Chemicon International) (P06756 31-992, chain 1 of 2): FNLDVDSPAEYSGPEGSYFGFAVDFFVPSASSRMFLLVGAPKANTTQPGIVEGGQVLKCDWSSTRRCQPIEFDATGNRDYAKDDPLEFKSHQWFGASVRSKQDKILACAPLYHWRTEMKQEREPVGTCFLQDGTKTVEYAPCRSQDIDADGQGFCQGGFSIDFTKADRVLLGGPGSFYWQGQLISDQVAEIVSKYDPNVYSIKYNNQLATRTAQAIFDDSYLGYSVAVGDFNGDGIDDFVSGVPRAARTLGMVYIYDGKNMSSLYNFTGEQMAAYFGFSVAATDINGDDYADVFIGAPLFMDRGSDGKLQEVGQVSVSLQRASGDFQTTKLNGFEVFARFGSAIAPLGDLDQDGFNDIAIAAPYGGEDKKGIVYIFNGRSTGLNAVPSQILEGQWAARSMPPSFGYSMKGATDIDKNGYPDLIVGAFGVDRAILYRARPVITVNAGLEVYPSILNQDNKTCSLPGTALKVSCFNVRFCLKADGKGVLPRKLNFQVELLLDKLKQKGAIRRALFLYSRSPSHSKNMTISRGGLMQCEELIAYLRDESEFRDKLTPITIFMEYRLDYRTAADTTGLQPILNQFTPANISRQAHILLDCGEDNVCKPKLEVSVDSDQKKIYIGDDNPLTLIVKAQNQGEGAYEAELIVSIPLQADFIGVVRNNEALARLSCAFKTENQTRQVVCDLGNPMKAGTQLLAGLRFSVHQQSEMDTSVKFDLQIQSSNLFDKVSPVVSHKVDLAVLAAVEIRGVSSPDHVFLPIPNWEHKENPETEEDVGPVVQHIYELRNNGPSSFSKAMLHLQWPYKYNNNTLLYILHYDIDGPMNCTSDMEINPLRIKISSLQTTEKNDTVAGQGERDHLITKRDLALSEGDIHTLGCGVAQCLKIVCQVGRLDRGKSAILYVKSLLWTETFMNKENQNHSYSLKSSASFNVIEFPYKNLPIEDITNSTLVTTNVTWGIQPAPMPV
Sequence of soluble αvβ3 integrin heterodimer (Chemicon International) (P05106 27-718, chain 2 of 2, further chain): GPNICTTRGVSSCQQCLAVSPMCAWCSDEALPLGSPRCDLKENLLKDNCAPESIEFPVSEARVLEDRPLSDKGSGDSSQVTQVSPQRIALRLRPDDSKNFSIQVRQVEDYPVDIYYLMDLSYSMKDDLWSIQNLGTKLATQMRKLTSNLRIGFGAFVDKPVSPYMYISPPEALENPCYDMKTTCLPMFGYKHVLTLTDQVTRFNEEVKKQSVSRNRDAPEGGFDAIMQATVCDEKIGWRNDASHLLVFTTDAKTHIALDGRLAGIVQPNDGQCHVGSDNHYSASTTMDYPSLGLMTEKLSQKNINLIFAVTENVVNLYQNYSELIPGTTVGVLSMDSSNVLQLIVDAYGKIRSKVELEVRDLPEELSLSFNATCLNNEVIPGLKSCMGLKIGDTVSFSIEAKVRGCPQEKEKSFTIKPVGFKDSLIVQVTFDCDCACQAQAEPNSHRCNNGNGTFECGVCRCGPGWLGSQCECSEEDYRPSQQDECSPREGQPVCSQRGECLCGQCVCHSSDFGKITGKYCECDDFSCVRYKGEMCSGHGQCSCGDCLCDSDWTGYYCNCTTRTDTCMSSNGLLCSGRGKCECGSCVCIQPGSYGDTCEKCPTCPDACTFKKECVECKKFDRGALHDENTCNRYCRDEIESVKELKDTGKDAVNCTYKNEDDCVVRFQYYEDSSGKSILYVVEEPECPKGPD

In assay [1], “human fibronectin (BD Biosciences), P02751 32-2296 (ligand)” showed an IC50 of 0.084 µM.

Consider “laminin 5 derived from conditioned medium of cultured epithelial cells (ligand)”, for which, in assay [2], the inhibition of endothelial cell adhesion to laminin 5 by a combination of antibodies against the α3 and α6 integrin subunits came to 40%; the inhibition of endothelial cell adhesion to laminin 5 by antibody 6S6 against β1 integrin was more than 80%; the inhibition of endothelial cell adhesion to laminin 5 by antibody LM609 against αvβ3 integrin was found to be 60%.
